Data taken from the DeepSol protein solubility set.

Assay: soluble on expression in E. coli; label from the status in PepcDB or PDB records

Row | Sequence | soluble on expression in E. coli
1 | MINKIFALPVIEQLTPVLSRRQLDDLDLIVVDHPQVKASFALQGAHLLSWKPVGEEEVLWLSNNTPFKTGVALRGGVPICWPWFGPAAQQGLPSHGFARNLPWALKAHNEDDNGVMLTFELQSSEATRKYWPHDFTLLARFKVGKTCEIELEAHGEFATTSALHSYFNVGDIANVKVSGLGDRFIDKVNDAKEGVLTDGIQTFPDRTDRVYLNPEACSVIHDATLNRTIDVVHHHHLNVVGWNPGPALSVSMGDMPDDGYKTFVCVETVYATAPQQATEEKPSRLAQTICVAKR | not soluble
2 | MINSVITQMAEELRKASKVALFSHVSPDGDCIGSMLGIGLALEALGKEVAMFNPDPIPRNLSFLPGVDKITQSMPDPLPETLLFVDCADLQRVQLQREDLPADAVILNLDHHISNQNFGRINWVDSQAAASGELAYALVRRLNVELTQEIAANFYTALLTDTGSFKYANTTAKTHQIAGELMETGISLGDIHHFVFDQTPMVKLELLRRGLNQLQFFAEGQLGMMTLRKQDFEESGAEESLSEGLIDHARTVEGVEVAVLLKEVKPDVVRVSLRSNRWFDVNRIADGFGGGGHQRAAGCTLHLSLEEAKQKVRQIIEEELKLGRSHLEHHHHHH | soluble
3 | MIPKVIHYFWFGRGKKNDVIERCMDSWKVHLPDYEIKEWNEDNFNVHINNFTLQAYQMKKWAFVSDYARLHILYHYGGIYLDTDLEITNSLDPFLDYEGFMGFFSNFDISGGIIGAAKGNKFIKKLLTYYENKNFIDGNGKIDEKTNVEIITEISKKHFGFVGENQTQQILDMTIFPKEYFTVRDVNVKNYAIHHYNASWLSHEEMNKHLKSYRKYYEFTVKWLDNLINNKIDLTPYKNKCIAIFGKGYIGELLVSYLQNNNVPIRQIIDTKFANDTYKDIPIVSSDTISDEVNLIIITPIHSFESIYLSLKEKSCADIISIENLLS | soluble
4 | MIPPLNRYVPALSKNELVKTVTNRDIQFTSFNGKDYPLCFLDEKTPLLFQWFERNPARFGKNDIPIINTEKNPYLNNIIKAATIEKERLIGIFVDGDFFPGQKDAFSKLEYDYENIKVIYRNDIDFSMYDKKLSEIYMENISKQESMPEEKRDCHLLQLLKKELSDIQEGNDSLIKSYLLDKGHGWFDFYRNMAMLKAGQLFLEADKVGCYDLSTNSGCIYLDADMIITEKLGGIYIPDGIAVHVERIDGRASMENGIIAVDRNNHPALLAGLEIMHTKFDADPYSDGVCNGIRKHFNYSLNEDYNSFCDFIEFKHDNIIMNTSQFTQSSWARHVQ | not soluble
5 | MIPVTRMAVGKGTVSTRIKGLRGRRPSSFADILRPVVFWNITRACNLKCIHCYISAGPHPLPGELSTEEALGVARQLVEHGVPLVTLSGGEPLVRRDFWAIAKALSGHDTPKLALSSNGTLITRETAARLRRLGFSYVGISLDSVDPGVHDKFRGAPGAFKAAIRGARNALEEGLDVGFRLTITKYNLDDAPRIIRLASDMGVPRVAIYVVDLLGRATPDLAPSPEDLRRAIDAILEESVRHQDRVEVLLVRANFAGVYLADRLAKTRDEFLQLLSLVGSHGDCGRKSVSIYPDGTVRPCQFLEEVVIGDLRRQRLGEILSADNPLLKPFIAVDTMLRGPKCGGCPFKRVCGGGSRMRALKTTGEFWGDDPLCFIDPWSIARRWGYSAG | not soluble
6 | MIQDKEVTLEYVSSLDFWYCKRCKANIGGHRSSCSFCKNPREVTEAKQELITYPQPQKTSIPAPLEKQPNQPLRPADKEPEPRKREEGQESRLGHQKREAERYLPPSRREGPTFRRDRERESWSGETRQDGESKTIMLKRIYRSTPPEVIVEVLEPYVRLTTANVRIIKNRTGPMGHTYGFIDLDSHAEALRVVKILQNLDPPFSIDGKMVAVNLATGKRRNDSGDHSDHMHYYQGKKYFRDRRGGGRNSDWSSDTNRQGQQSSSDCYIYDSATGYYYDPLAGTYYDPNTQQEVYVPQDPGLPEEEEIKEKKPTSQGKSSSKKEMSKRDGKEKKDRGVTRFQENASEGKAPAEDVFKKPLPPTVKKEESPPPPKVVNPLIGLLGEYGGDSDYEEEEEEEQTPPPQPRTAQPQKREEQTKKENEEDKLTDWNKLACLLCRRQFPNKEVLIKHQQLSDLHKQNLEIHRKIKQSEQELAYLERREREGKFKGRGNDRREKLQSFDSPERKRIKYSRETDSDRKLVDKEDIDTSSKGGCVQQATGWRKGTGLGYGHPGLASSEEAEGRMRGPSVGASGRTSKRQSNETYRDAVRRVMFARYKELD | not soluble
7 | MIQIAIAGSSDEKPLEVAVRKTKEFIKALPSDVILMTGGRGGIMEVASEEFRKKGGIVVGILPYSDNGNRFNTVRVKTGLNPVERSGVLIESADVLVVLGGGVGTMIEALMAYNLGIPVIVITGTGYASDRLMELAKEGYFDHKRIVKVIFTDDPKEAAKLALKIGGERSEARDI | soluble
8 | MIQKGCTPIEEGSDSEPQAETVPEEADYEAVPVEAYGLAMLRGMGWKPGKGIGNTFSQVVKPRVNSIRPKGLGLGANRMEAQDLASVGSHHPPRPDGDRENDKEGQPQGLMHGRAVVVLSGPYRGLYGKVEGLDPDNVRAMVRLAVGNRIVTVSEYCLRPVSQQEFDSHTSKPGHVSQTSTEQQNRATGTASSLKAAQNQEDSKRRQKGSEKKRKHSPDRQDGPVPKTEKAAPRNKHWLHRDLRVRFIDKLHKSGRYYNTKMTIEDVLSPDTCVCRTDEGRVLEDVREDMLETLIPKGEGHRVMVVLGPHAGKVGLLRSRDRAQSHALVQLRRENQVVELHYNAICQYMGPGDSDED | soluble
9 | MIQNDYSIYQYHVEFEPTVDSKATRENMLRQPSVTVEIGKHFVFDGMILYLKEEWDQNQMIEVQHPNDNSLICIRFKKTNRFLVDDPQTINIFNTIIRRSFDAMKLTQIGRNYFDWDNSRALRKELRSCQNNRQRVQEKMNEVYGGSTIITRYNNKLHRFTRLDNEITPLSKFQKDGEQIILKEYFKNQYDIDITDDEQFIIISEGKPKQPGEPPQVNYIVPELCFPTGLTDEMRKDFKMMKEIAKHTRMSPQQRLDETRKLITKLSQNQTMMECFQYWGISLGQDLANVQARVLKSEPLQGKRQYEGKQAEWARGVKECGIYRGSNMTNWIVIGPGSGNSGLLAQKFIAEARNLGRTLQVQLGEPMCVKINGISPNDYLEGLKAAIKSVDGEEIHMLVVMLADDNKTRYDSLKKYLCVECPIPNQCVNLRTLAGKSKDGGENKNLGSIVLKIVLQMICKTGGALWKVNIPLKSTMIVGYDLYHDSTLKGKTVGACVSTTSNDFTQFYSQTRPHENPTQLGNNLTHFVRKSLKQYYDNNDKTLPSRLILYRDGAGDGQIPYIKNTEVKLVRDACDAVTDKAAELSNKVQEKIKLAFIIVTKRVNMRILKQGSSSKSAINPQPGTVVDTTVTRPERMDFYLVPQFVNQGTVTPVSYNIIHDDTGLGPDKHQQLAFKLCHLYYNWQGTVRVPAPCQYAHKLAFLTAQSLHDDANGYLRDKLFFL | not soluble
10 | MIRFLGNIEVRADAKGRVFIPATFRKQLQAASEERLIMRKDVFQDCLTLYPESVWNEELNELRSRLNKWNSKHQLIFRQFVSDVEVVTPDSNGRILIPKRYLQICNIRGDIRFIGIDNKIEIWAKERAEQPFMSPEEFGAALEEIMNDENRQDGER | not soluble
11 | MIRKNKWLRFQTVCRYIPLSLKNHNRLVIFVCQRIEWRYIFSTNTGHPLKNTCEMTGTDFSTDGLMRRYVTGGNNQWHTVASLHMTIMMNRIGTVADRQPKARKVKHGEMTLEHHHHHH | not soluble
12 | MIRLSEQSPLGTGRHRKCYAHPEDAQRCIKIVYHRGDGGDKEIRRELKYYAHLGRRLKDWSGIPRYHGTVETDCGTGYVYDVIADFDGKPSITLTEFAEQCRYEEDIAQLRQLLKQLKRYLQDNRIVTMSLKPQNILCHRISESEVIPVVCDNIGESTLIPLATWSKWCCLRKQERLWKRFIAQPALAIALQKDLQPRESKTLALTSREA | soluble
13 | MIRLTELKLPLNHEEGALLDAIAAKLKIPAQQVLSFTLFRRGYDARKKSDIQLIYTVDVEVANPEKLLAKFSKDQHVRPTPDMSYKFVAKAPENLPERPLVIGFGPCGLFAGLVLAQMGFNPIIVERGKEVRERTKDTFGFWRKRTLNTESNVQFGEGGAGTFSDGKLYSQVKDPNFYGRKVITEFVEAGAPEEILYVSKPHIGTFKLVTMIEKMRAKIIELGGEIRFSTRVDDIHMQDGQITGVILSNGEEIQSRHVVLAVGHSARDTFEMLHARGVYMEAKPFSVGFRIEHKQSMIDEARFGPSAGHPILGAADYKLVHHCKNGRTVYSFCMCPGGTVVAATSEEGRVVTNGMSQYSRAERNANSAIVVGISPEQDYPGDPLAGIRLQRELETNAYKLGGETYDAPAQKIGDFLKGRNPSELGDVQPSFTPGIKLTDLSKALPAFAVEAIREAIPEFDRQIKGFASEDGLLTGVETRTSSPVCIKRGKDFQSINLKGFYPAGEGAGYAGGILSAGIDGIKVAEAVARDMMARFAGELEHHHHHH | soluble
14 | MIRNKAFVVRLYPNAAQTELINRTLGSARFVYNHFLARRIAAYKESGKGLTYGQTSSELTLLKQAEETSWLSEVDKFALQNSLKNLETAYKNFFRTVKQSGKKVGFPRFRKKRTGESYRTQFTNNNIQIGEGRLKLPKLGWVKTKGQQDIQGKILNVTVRRIHEGHYEASVLCEVEIPYLPAAPKFAAGVDVGIKDFAIVTDGVRFKHEQNPKYYRSTLKRLRKAQQTLSRRKKGSARYGKAKTKLARIHKRIVNKRQDFLHKLTTSLVREYEIIGTEHLKPDNMRKNRRLALSISDAGWGEFIRQLEYKAAWYGRLVSKVSPYFPSSQLCHDCGFKNPEVKNLAVRTWTCPNCGETHDRDENAALNIRREALVAAGISDTLNAHGGYVRPASAGNGLRSENHATLVVLEHHHHHH | soluble
15 | MIRTVMDFKFVLRLLEANQFENEVVEYKKNNKDFIVLGKNISALSNTAALLGIDKAYIIFGIEDGTLNIVGTNFKPKQEKKGNEELESWLHKVLKPNIEFKIHEITEKEIRLVVFEIEATKISPIKFEEKAYIRIGSNRKELDKYPEKEKKLWQVLSGFSFENEIAKSNLNIQDIYDLLDYSKCFDMLDISYDNYSSDEYIIEKLIEHGLVKNLNDSFAITNLGAILFAKDLTKFKGLNRKRIRFIRYQGKNKIHTLEELEGRKGYAIGFQGLISYIMQYVPKNEVIENAIRKDTTLYPEIAIRELVANAIIHQDFTINGRNPMIEMYSDRIEITNNGKSLIDIKRLIDMPSKSRNDKLANLMRIMGICEERGSGVDKVIDSVEAYQLPAPDFINNEDYFQAILFSHMPLEDMTKQDRIRATYQHCCLKWASREAMTNASLRARFKIGDKQHSKASKIISDTLEAGLIKQQDPENKSTKHVKYVPFFV | not soluble
16 | MIRVASLIKAMSDTQLQIAQGASPLTGLPGNSAIEQEIKRRLNSGNAFGMIYADLNQFKAFNDTYGFQYGDSIIKLLGKILMQDSLKADDLAFVGHVGGDDFIILTTQNVTKTLGETILLSFQEQLSAMQGAQDLSLALAGLIIYPHTAWTPATLSERIAAVKREAKKAHCNYFLLRELEHHHHHH | not soluble
